Patent US8802630B2, “Method of treating brain injury” (Buddhist Tzu Chi General Hospital, priority 2011, dated 2014)
Where no end group is shown, it is not given here.

Columns and labels:
[1] = system: collagenase-induced ICH rats; test: modified Neurological Severity Score (mNSS), collagenase-induced ICH model; assay type: in vivo
Method: (§1) The ICH refers to hemorrhage in the striatum, a part of the brain. Male Sprague-Dawley rats (250-300 g) anesthetized with chloral hydrate (0.4 g kg^−1 i.p., Sigma-Aldrich, St. Louis, Mo., USA). The blood infusion model of ICH was induced by intrastriatal (0.0 mm posterior, 3.0 mm right, 5.0 mm ventral to bregma skull surface) infusion of autologous blood (100 μl within 1 minute) and stereotaxic administration of bacterial collagenase VII-S into the striatum (MacLellan et al. 2008; Rosenberg et al. 1990). Briefly, bacterial collagenase VII-S (0.23 U in 1.0 μl sterile saline, Sigma-Aldrich) was infused into the striatum over a period of 10 minutes. The needle was kept in place for another 10 minutes to prevent backflow. The craniotomies were sealed with bone wax. The rats were allowed to recover in separate cages at room temperature.
(§2) Rats were used in the assessment of the neurological abnormalities with a modified Neurological Severity Score (mNSS) method (Chen et al. 2001) by an investigator blinded to the experimental treatment scheme. The mNSS is a composite test of motor, sensory, and balance functions. The assessment was performed before and on 1, 3 and 7 days after the ICH. Neurological functions were graded on a scale of 0-18 (normal score, 0; maximal deficit score, 18).

[2] = system: autologous blood infusion-induced ICH rats; test: modified Neurological Severity Score (mNSS), autologous blood infusion ICH model; assay type: in vivo
Method: as §1, §2

[3] = Evaluation of physiological parameters (MABP, heart rate, rectal temperature, blood gases); assay type: in vivo, rats; settings: for RT (rectal temperature) / pCO2 / pO2 / pH: ICH + L-UCN 2.5 μg/kg i.p.; for decrease in MABP / increase in HR: 1.0 to 3.0 h post-treatment; for pH: arterial blood
Method: Rats were randomly assigned for evaluation of physiological parameters including mean arterial blood pressure, blood gases, body weight changes and body temperature. Under urethane (urethane (1.0 g/kg bodyweight, intraperitoneally, Sigma-Aldrich) anesthesia, a femoral artery was cannulated with a PE-50 polyethylene tube for fluid supplementation and monitoring of arterial blood pressure and blood gas. Arterial blood pressure was recorded through an amplifier (MP35, BIOPAC system, Inc.) and stored in a PC computer. Body temperature (rectal temperature) was automatically maintained at 37.5±0.5° C. by a rectal temperature sensor and a heating pad (CMA-150, Sweden). The physiological parameters were measured before (baseline) and after treatment (UCN or Saline) 0.5, 1 and 3 hours.

IL-1β = test: Cytokine ELISA of ipsilateral striatal tissue; assay type: in vivo, rats; settings: L-UCN 2.5 μg/kg i.p.; days 1, 3 and 7 post-ICH; vs ICH+Saline
Method: (§3) Rats were used for the cytokine assay by ELISA. The ipsilateral striatal tissues were collected before and on days 1, 3 and 7 days post-ICH. After homogenization in the lysis buffer (PRO-PREP™, iNtRON Biotechnology, Korea) and centrifuged at 12,000 g for 30 minutes, the supernatants were collected and stored frozen at −80° C. During quantification, the cytokines (TNFα, IL-1β and IL-6) were normalized to 100 μg of proteins in the supernatant using a commercial ELISA kit from R & D Systems (Minneapolis, Minn., USA) according to the manufacturer's instructions.

IL-6 = test: Cytokine ELISA of ipsilateral striatal tissue; assay type: in vivo, rats; settings: L-UCN 2.5 μg/kg i.p.; day 1 post-ICH; vs ICH+Saline
Method: as §3

TNF-α = test: Cytokine ELISA of ipsilateral striatal tissue; assay type: in vivo, rats; settings: L-UCN 2.5 μg/kg i.p.; days 1, 3 and 7 post-ICH; vs ICH+Saline
Method: as §3

microglial cells = test: Immunohistochemistry of microglial activation (OX-42, ED-1); assay type: in vivo, rats; settings: perihematomal region; L-UCN 2.5 μg/kg i.p.; day 3 post-ICH
Method: Rats were used in immunohistochemistry on day 3 post-ICH. Rats were anesthetized as described above and transcardially perfused with cold 0.1 M phosphate buffer saline followed by cold 4% paraformaldehyde in 0.1 M phosphate-buffered saline. Brains were removed and immersed in 4% paraformaldehyde for 24 hours and 30% sucrose for another 24 hours. Coronal brain sections (20 μm thickness) were cut and collected from 0.0 to −2.0 mm AP to bregma using a cryostat (Leica CM 1900). Three 20 μm coronal sections, representing the core of the hematoma, were taken starting at 0.0 mm from bregma (the needle entry site). Additional adjacent serial coronal sections taken through the center of the hemorrhagic lesion were processed for the counting of marker-specific cells (Jung et al., 2004). Antibodies of OX-42 (1:100; BD, USA), ED-1 (1:100; BD, USA) were used as microglial markers, and NeuN (1:200, Chemicon, USA) was used as neuron marker. Tissues sections were incubated with the primary antibodies overnight at 4° C. […] The numbers of positive cells in the same focal plane were counted in 6 regions of interest around the ipsilateral striatum (perihematomal region, 1 mm^2) All cell counting was done by an independent investigator counted the positive cells.

[4] = Cerebral blood flow after bolus injection of UCN; assay type: in vivo; settings: UCN 25 μg/kg body weight
[5] = UCN 2.5 μg/kg i.p. 1 h after ICH

urocortin (DNPSLSIDLTFHLLRTLLELARTQSQRERAEQNRIIFDSV; ends and bridges not checked; UniProt P55089 83-122, looked up) [UCN, a 40-amino-acid endogenous neuropeptide, belongs to the corticotrophin releasing hormone (CRH) family]
mNSS ([1]; H-UCN 25 μg/kg i.p. 60 min post-ICH, day 1, scale 0-18): 6.55±0.26 | mNSS ([1]; H-UCN 25 μg/kg i.p. 60 min post-ICH, day 3, scale 0-18): 4.68±0.29 | mNSS ([1]; H-UCN 25 μg/kg i.p. 60 min post-ICH, day 7, scale 0-18): 2.00±0.26 | mNSS ([1]; L-UCN 2.5 μg/kg i.p. 60 min post-ICH, day 1, scale 0-18): 3.86±0.70 | mNSS ([1]; L-UCN 2.5 μg/kg i.p. 60 min post-ICH, day 3, scale 0-18): 1.71±0.55 | mNSS ([1]; L-UCN 2.5 μg/kg i.p. 60 min post-ICH, day 7, scale 0-18): 1.63±0.46 | mNSS ([1]; UCN 0.05, 0.5 and 5 μg i.c.v. 1 h after collagenase ICH, over 7 days, most effective at 5 μg, vs ICH+Saline): dose-dependent reduction in the mNSS | mNSS ([2]; UCN 2.5 μg/kg i.p. 60 min after blood infusion ICH, vs ICH+Saline): greater reduction in mNSS | mNSS ([2]; UCN 5 μg i.c.v. 1 h after blood infusion ICH, vs saline): greater reduction in mNSS | RT (rectal temperature) ([3]; 0.5 h post-treatment): 36.95 ± 0.03 °C | pCO2 ([3]; 0.5 h post-treatment): 45.07 ± 1.05 mmHg | pO2 ([3]; 0.5 h post-treatment): 105.24 ± 6.00 mmHg | RT (rectal temperature) ([3]; 1.0 h post-treatment): 37.00 ± 0.05 °C | pCO2 ([3]; 1.0 h post-treatment): 42.60 ± 2.44 mmHg | pO2 ([3]; 1.0 h post-treatment): 107.28 ± 5.35 mmHg | RT (rectal temperature) ([3]; 3.0 h post-treatment): 36.97 ± 0.02 °C | pCO2 ([3]; 3.0 h post-treatment): 43.25 ± 1.59 mmHg | pO2 ([3]; 3.0 h post-treatment): 107.90 ± 5.59 mmHg | RT (rectal temperature) ([3]; baseline): 36.92 ± 0.05 °C | pCO2 ([3]; baseline): 46.73 ± 1.80 mmHg | pO2 ([3]; baseline): 100.00 ± 4.40 mmHg | decrease in MABP [3, 5]: ≤ 25 mm Hg | increase in HR [3, 5]: ≤ 35 beats/min | mean arterial blood pressure ([3]; UCN 5 μg i.c.v., over 3 hours): no significant difference | fall in mean arterial blood pressure (MABP) ([3]; UCN 25 μg/kg body weight, bolus intraperitoneal injection): 40-50 mmHg | fall of MABP ([3]; UCN 25 μg/kg body weight, bolus intravenous injection, vs intraperitoneal): much more abrupt fall of MABP | decrease in MABP ([3]; UCN 25 μg/kg i.p.): ≤ 40 mm Hg | increase in HR ([3]; UCN 25 μg/kg i.p.): ≤ 45 beats/min | pH ([3]; 0.5 h post-treatment): 7.39 ± 0.01 | pH ([3]; 1.0 h post-treatment): 7.42 ± 0.01 | pH ([3]; 3.0 h post-treatment): 7.42 ± 0.01 | pH ([3]; baseline): 7.37 ± 0.02 | IL-1β level of ipsilateral striatum (IL-1β): significantly reduced | IL-6 level of ipsilateral striatum (IL-6): reduced | TNF-α level of ipsilateral striatum (TNF-α): significantly reduced | number of ED-1+ cells (microglial cells): 28.50±2.65 cells/6 mm^2 | number of OX-42+ microglial cells (microglial cells): 82.00±22.86 cells/6 mm^2 | reduction of the cerebral blood flow (CBF) ([4]; bolus intraperitoneal injection): 25% | reduction of CBF ([4]; bolus intravenous injection): 40-45%
